Laboratory results published in US20250382354A1.

Target: JL14 HR2 peptide (JL14)
Experiment: peptide ELISA

Binder	EC50 [µg/mL]
hr2.020 (antibody, V domains shown) VH: EVQLVQSGAEVKKPGESLKISCKGSGYRFASHWIGWVRQMPGKGLQWMGIIYPGDSDTKYSPSFQGQVTISADKSINTVYLHWTSLKASDTAVYYCARRPPHLDGGDSPIRFDHWGQGTLVTVSS VL: QSVLTQPPSASGTPGQRVTISCSGSRSNIGSNDVYWYQQFPGTAPKLLIYRNNQRPSGVPDRFSGSKSGTSASLAISGLRSEDEADYYCATWDDRLTGVFGGGTKLTVV	0.0351
CV3-25 (antibody) chain 1: QVQLVESGAEVKKPGESLKISCKGSGYTFTRYWIGWVRQMPGKGLEWMGIIYPGDSDTRYSPSFQGHVTISADKSISTAYLQWNSLKASDTAMYYCARLPQYCSNGVCQRWFDPWGQGTLVTVSS chain 2: EIVLTQSPSSVSASVGDRVTITCRASQGISSWLAWYQQKPGKAPKLLIYAASSLQSGVPSRFSGSGSGTDFTLTISSLQPEDFATYYCQQGNSFPYTFGQGTNLEIK	0.0176
